Reference: the supplement of paper PMC10724198
± gives the standard deviation of the averaged measurements.

Key:
[1] = tested on: Saccharomyces cerevisiae; assay: protein stability index of tFT-peptide fusion (C-terminal peptide) (PSI (0-1 scale)); higher = more stable (slower turnover)
Procedure: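 MPS profiling in S. cerevisiae of the tFT-X12 degron library: putative degron peptides plus stable controls, 12 aa, fused to the C-terminus of a sfGFP-mCherry timer. Cells are FACS-sorted into 8 mCherry/sfGFP bins and deep-sequenced. PSI runs from 0 (unstable) to 1 (stable). Backgrounds are wild type, das1Δ and doa10Δ at 30 °C, and wild type, das1Δ, cdc34-1 and cdc53-1 at 37 °C; 2-3 technical replicates each.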

[2] = tested on: Saccharomyces cerevisiae; assay: as above; settings: genetic background: wild type; temperature: 30 C
[3] = genetic background: cdc34-1, temperature: 37 C
[4] = genetic background: cdc53-1, temperature: 37 C
[5] = genetic background: das1 deletion, temperature: 30 C
[6] = genetic background: das1 deletion, temperature: 37 C
[7] = genetic background: doa10 deletion, temperature: 30 C
[8] = genetic background: wild type, temperature: 30 C
[9] = genetic background: wild type, temperature: 37 C
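Also: PSI is a weighted mean of sequencing reads over stability bins, variants kept only with over 10 reads, mCherry proximal and sfGFP distal, peptide attached via GGGS linker.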

Row | Sequence | protein stability index [1, 3] | protein stability index [1, 4] | protein stability index [1, 5] | protein stability index [1, 6] | protein stability index [1, 7] | protein stability index [1, 8] | protein stability index [1, 9] | protein stability index [2]
1 | LVWSGLIVVVGG | 0.179 ± 0.024 | 0.204 ± 0.064 | 0.2 ± 0.03 | 0.318 ± 0.013 | 0.176 ± 0.033 | 0.195 ± 0.033 | 0.269 ± 0.012 | 0.3 ± 0.042
2 | LWAVGVATDWGG | 0.706 ± 0.018 | 0.7571 ± 0.0035 | 0.684 ± 0.029 | 0.768 ± 0.015 | 0.694 ± 0.021 | 0.689 ± 0.011 | 0.7513 ± 0.0075 | 0.734 ± 0.022
3 | LWERRSRQLTMF | 0.645 ± 0.056 | 0.7649 ± 0.003 | 0.687 ± 0.014 | 0.7401 ± 0.0057 | 0.173 ± 0.011 | 0.166 ± 0.018 | 0.33 ± 0.026 | 0.263 ± 0.013
4 | LWGLVGVCLVLC | 0.0679 ± 0.011 | 0.0705 ± 0.004 | 0.176 ± 0.021 | 0.229 ± 0.0061 | 0.135 ± 0.0079 | 0.113 ± 0.016 | 0.134 ± 0.011 | 0.169 ± 0.0084
5 | LWVMVLFFPGCS | 0.3714 ± 0.0026 | 0.493 ± 0.0033 | 0.307 ± 0.042 | 0.552 ± 0.024 | 0.299 ± 0.0056 | 0.326 ± 0.025 | 0.5361 ± 0.0032 | 0.463 ± 0.043
6 | LWVSHFVILIVS | 0.122 ± 0.032 | 0.105 ± 0.0073 | 0.135 ± 0.03 | 0.236 ± 0.0048 | 0.0934 ± 0.036 | 0.108 ± 0.026 | 0.16 ± 0.0095 | 0.213 ± 0.03
7 | LYRSLLLSFCVL | 0.593 ± 0.023 | 0.6381 ± 0.00019 | 0.528 ± 0.011 | 0.639 ± 0.018 | 0.407 ± 0.031 | 0.411 ± 0.022 | 0.521 ± 0.012 | 0.483 ± 0.0052
8 | LYSLRRNWLRTP | 0.637 ± 0.032 | 0.726 ± 0.016 | 0.672 ± 0.016 | 0.772 ± 0.0095 | 0.1676 ± 0.0011 | 0.21 ± 0.026 | 0.478 ± 0.019 | 0.323 ± 0.04
9 | MALAVRVVPCGA | 0.373 ± 0.012 | 0.385 ± 0.011 | 0.291 ± 0.028 | 0.4637 ± 0.0008 | 0.264 ± 0.011 | 0.287 ± 0.037 | 0.421 ± 0.0078 | 0.397 ± 0.017
10 | MALAVRVVSCGA | 0.294 ± 0.015 | 0.3333 ± 0.0024 | 0.265 ± 0.032 | 0.4146 ± 0.0036 | 0.2244 ± 0.00017 | 0.262 ± 0.016 | 0.3802 ± 0.0015 | 0.3657 ± 0.0028
11 | MCVCLLVRVVPS | 0.188 ± 0.0053 | 0.3241 ± 0.00049 | 0.211 ± 0.029 | 0.41 ± 0.01 | 0.175 ± 0.0074 | 0.194 ± 0.022 | 0.357 ± 0.0044 | 0.297 ± 0.044
12 | MGDFGFIFVFFL | 0.544 ± 0.007 | 0.606 ± 0.035 | 0.427 ± 0.027 | 0.6479 ± 0.0044 | 0.383 ± 0.0084 | 0.414 ± 0.008 | 0.59233 ± 0.00044 | 0.502 ± 0.02
13 | MVVSLVLCFWAS | 0.248 ± 0.026 | 0.331 ± 0.069 | 0.257 ± 0.024 | 0.409 ± 0.016 | 0.222 ± 0.0091 | 0.244 ± 0.018 | 0.414 ± 0.055 | 0.255 ± 0.045
14 | MWRWASKCRFSM | 0.668 ± 0.025 | 0.706 ± 0.015 | 0.634 ± 0.015 | 0.759 ± 0.0097 | 0.231 ± 0.012 | 0.245 ± 0.022 | 0.515 ± 0.047 | 0.367 ± 0.011
15 | NFSALECKVQLT | 0.747 ± 0.076 | 0.727 ± 0.018 | 0.625 ± 0.018 | 0.725 ± 0.017 | 0.647 ± 0.042 | 0.653 ± 0.026 | 0.689 ± 0.0082 | 0.75 ± 0.052
16 | NFTDMGRSLYIN | 0.592 ± 0.056 | 0.788 ± 0.018 | 0.663 ± 0.015 | 0.775 ± 0.0087 | 0.166 ± 0.0031 | 0.208 ± 0.054 | 0.434 ± 0.024 | 0.279 ± 0.057
17 | NHKNANAATLIN | 0.645 ± 0.053 | 0.7192 ± 0.0061 | 0.641 ± 0.036 | 0.7266 ± 0.0038 | 0.268 ± 0.016 | 0.352 ± 0.038 | 0.6016 ± 0.0051 | 0.4548 ± 0.0018
18 | NVVIGLHLLVYI | 0.205 ± 0.021 | 0.313 ± 0.041 | 0.212 ± 0.047 | 0.419 ± 0.017 | 0.189 ± 0.022 | 0.227 ± 0.014 | 0.388 ± 0.018 | 0.326 ± 0.049
19 | NYVVFVRGIKIT | 0.585 ± 0.039 | 0.609 ± 0.02 | 0.533 ± 0.026 | 0.633 ± 0.011 | 0.104 ± 0.0022 | 0.114 ± 0.016 | 0.177 ± 0.016 | 0.186 ± 0.1
20 | PCVLAIYVWIRS | 0.0479 ± 0.016 | 0.169 ± 0.019 | 0.154 ± 0.037 | 0.2704 ± 0.0022 | 0.083 ± 0.016 | 0.107 ± 0.016 | 0.173 ± 0.011 | 0.163 ± 0.054
